Data from the supplement of paper PMC9112550, “Optimization of the antimicrobial peptide Bac7 by deep mutational scanning” (BMC Biology, 2022).

system: Escherichia coli TOP10; test: shrunken log2 fold change of peptide-encoding DNA abundance (4.5 h post-induction vs induction); higher = less antimicrobial activity (less host growth inhibition); conditions: time post-induction: 4.5 h; library: site-saturation at positions 5, 18, 19, 20
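Further: peptides expressed intracellularly from a pBAD plasmid library in pooled LB shake-flask culture, induced with 0.3% L-arabinose, DNA abundance read by NGS, three biological replicates, DESeq2 with apeglm shrinkage.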

| Sequence | shrunken log2 fold change |
| --- | --- |
| RRIRTRPPRLPRPRPRPWPVPRP | -0.105 |
| RRIRLRPPRLPRPRPRPMGYPRP | -0.126 |
| RRIRDRPPRLPRPRPRPSNSPRP | -0.365 |
| RRIRARPPRLPRPRPRPIIWPRP | -0.419 |
| RRIRGRPPRLPRPRPRPRPEPRP | 0.667 |
| RRIRIRPPRLPRPRPRPQFGPRP | 1.74 |
| RRIRSRPPRLPRPRPRPKKSPRP | -0.0117 |
| RRIRLRPPRLPRPRPRPIADPRP | -0.0951 |
| RRIRWRPPRLPRPRPRPWQLPRP | -0.18 |
| RRIRIRPPRLPRPRPRPRDRPRP | -0.0241 |
| RRIRDRPPRLPRPRPRPFEVPRP | -0.0211 |
| RRIRQRPPRLPRPRPRPHMPPRP | -0.0493 |
| RRIRYRPPRLPRPRPRPAVRPRP | -0.0403 |
| RRIRPRPPRLPRPRPRPYMQPRP | -0.681 |
| RRIRGRPPRLPRPRPRPGHKPRP | 0.173 |
| RRIRWRPPRLPRPRPRPNRLPRP | -0.0743 |
| RRIRDRPPRLPRPRPRPGTAPRP | 0.0777 |
| RRIRYRPPRLPRPRPRPTMIPRP | -0.455 |
| RRIRDRPPRLPRPRPRPPINPRP | -0.205 |
| RRIRTRPPRLPRPRPRPVMCPRP | -0.222 |
| RRIRHRPPRLPRPRPRPRTPPRP | 0.314 |
| RRIRVRPPRLPRPRPRPCIMPRP | -0.514 |
| RRIRNRPPRLPRPRPRPGWPPRP | 0.541 |
| RRIRQRPPRLPRPRPRPIPAPRP | 0.214 |
| RRIRCRPPRLPRPRPRPWFDPRP | -0.496 |

| Sequence | shrunken log2 fold change |
| --- | --- |
| RRIRRRPPRLPRPRPRPHIMPRP | -0.435 |
| RRIRQRPPRLPRPRPRPFDLPRP | -0.318 |
| RRIRKRPPRLPRPRPRPRQDPRP | -0.0954 |
| RRIRWRPPRLPRPRPRPQGLPRP | 0.00602 |
| RRIRQRPPRLPRPRPRPQHNPRP | -0.786 |
| RRIRQRPPRLPRPRPRPNAPPRP | 0.105 |
| RRIRPRPPRLPRPRPRPGHAPRP | 0.461 |
| RRIRMRPPRLPRPRPRPAMCPRP | 0.124 |
| RRIRFRPPRLPRPRPRPIFPPRP | -0.222 |
| RRIRHRPPRLPRPRPRPSRPPRP | 0.323 |
| RRIRMRPPRLPRPRPRPDLTPRP | 0.869 |
| RRIRTRPPRLPRPRPRPIYNPRP | -0.254 |
| RRIRHRPPRLPRPRPRPCSKPRP | -0.0875 |
| RRIRNRPPRLPRPRPRPCSKPRP | -0.0508 |
| RRIRYRPPRLPRPRPRPPCIPRP | -0.583 |
| RRIRERPPRLPRPRPRPICQPRP | 0.00158 |
| RRIRLRPPRLPRPRPRPDSEPRP | 0.482 |
| RRIRMRPPRLPRPRPRPKANPRP | 1.96 |
| RRIRFRPPRLPRPRPRPPKVPRP | 0.0991 |
| RRIRKRPPRLPRPRPRPKQLPRP | 0.417 |
| RRIRERPPRLPRPRPRPAVRPRP | 0.00239 |
| RRIRKRPPRLPRPRPRPSWHPRP | -0.0776 |
| RRIRQRPPRLPRPRPRPWRGPRP | -0.0544 |
| RRIRLRPPRLPRPRPRPTGWPRP | 0.303 |
| RRIRIRPPRLPRPRPRPMHVPRP | -0.00468 |

| Sequence | shrunken log2 fold change |
| --- | --- |
| RRIRGRPPRLPRPRPRPDAGPRP | 0.601 |
| RRIRTRPPRLPRPRPRPSNHPRP | -0.666 |
| RRIRERPPRLPRPRPRPWMKPRP | -0.353 |
| RRIRDRPPRLPRPRPRPPNRPRP | 0.789 |
| RRIRERPPRLPRPRPRPHSSPRP | -0.0464 |
| RRIRNRPPRLPRPRPRPYWMPRP | -0.26 |
| RRIRDRPPRLPRPRPRPGKEPRP | -0.0214 |
| RRIRSRPPRLPRPRPRPDETPRP | -0.0257 |
| RRIRGRPPRLPRPRPRPMSGPRP | 0.0585 |
| RRIRQRPPRLPRPRPRPDQAPRP | 0.0424 |
| RRIRMRPPRLPRPRPRPFCAPRP | 0.358 |
| RRIRRRPPRLPRPRPRPWPIPRP | 0.0239 |
| RRIRYRPPRLPRPRPRPSGRPRP | -0.261 |
| RRIRHRPPRLPRPRPRPECDPRP | -0.0404 |
| RRIRPRPPRLPRPRPRPSCGPRP | 0.137 |
| RRIRCRPPRLPRPRPRPYSFPRP | -0.414 |
| RRIRGRPPRLPRPRPRPNDWPRP | 0.235 |
| RRIRPRPPRLPRPRPRPGAQPRP | 0.198 |
| RRIRFRPPRLPRPRPRPGNEPRP | -0.00911 |
| RRIRPRPPRLPRPRPRPSYCPRP | -0.387 |
| RRIRERPPRLPRPRPRPWAPPRP | -0.0362 |
| RRIRSRPPRLPRPRPRPRLPPRP | 0.315 |
| RRIRDRPPRLPRPRPRPLFCPRP | 0.208 |
| RRIRTRPPRLPRPRPRPAFHPRP | 0.0779 |
| RRIRLRPPRLPRPRPRPLGNPRP | 0.102 |

| Sequence | shrunken log2 fold change |
| --- | --- |
| RRIRRRPPRLPRPRPRPDYCPRP | -0.214 |
| RRIRQRPPRLPRPRPRPWRTPRP | -0.152 |
| RRIRPRPPRLPRPRPRPRSAPRP | 0.497 |
| RRIRARPPRLPRPRPRPLNPPRP | -0.111 |
| RRIRIRPPRLPRPRPRPMFPPRP | -0.724 |
| RRIRRRPPRLPRPRPRPPNFPRP | 0.0782 |
| RRIRARPPRLPRPRPRPATDPRP | 1.53 |
| RRIRARPPRLPRPRPRPAGIPRP | 0.156 |
| RRIRGRPPRLPRPRPRPLQMPRP | 2.6 |
| RRIRCRPPRLPRPRPRPYPSPRP | -0.0149 |
| RRIRARPPRLPRPRPRPHLGPRP | 0.0806 |
| RRIRFRPPRLPRPRPRPEQFPRP | -0.115 |
| RRIRARPPRLPRPRPRPFWDPRP | 0.00119 |
| RRIRKRPPRLPRPRPRPTWRPRP | 1.23 |
| RRIRPRPPRLPRPRPRPNHHPRP | -0.509 |
| RRIRDRPPRLPRPRPRPMCGPRP | 1.12 |
| RRIRMRPPRLPRPRPRPEFYPRP | -0.056 |
| RRIRPRPPRLPRPRPRPAQNPRP | -0.105 |
| RRIRERPPRLPRPRPRPAEHPRP | -0.0237 |
| RRIRQRPPRLPRPRPRPHCYPRP | -0.0282 |
| RRIRYRPPRLPRPRPRPQLRPRP | -0.193 |
| RRIRCRPPRLPRPRPRPLHRPRP | 0.06 |
| RRIRDRPPRLPRPRPRPKHPPRP | 0.0483 |
| RRIRPRPPRLPRPRPRPGSYPRP | 0.0254 |
| RRIRERPPRLPRPRPRPWGHPRP | -0.118 |

| Sequence | shrunken log2 fold change |
| --- | --- |
| RRIRGRPPRLPRPRPRPPVMPRP | 0.333 |
| RRIRCRPPRLPRPRPRPQDSPRP | -0.0482 |
| RRIRTRPPRLPRPRPRPLQSPRP | -0.00232 |
| RRIRHRPPRLPRPRPRPGLNPRP | -0.0123 |
| RRIRHRPPRLPRPRPRPTEIPRP | 0.0223 |
| RRIRERPPRLPRPRPRPVHNPRP | -1.53 |
| RRIRWRPPRLPRPRPRPADPPRP | 0.372 |
| RRIRYRPPRLPRPRPRPGKHPRP | 0.0354 |
| RRIRTRPPRLPRPRPRPEYKPRP | 0.134 |
| RRIRGRPPRLPRPRPRPWFCPRP | -0.444 |
| RRIRGRPPRLPRPRPRPWYIPRP | -0.291 |
| RRIRERPPRLPRPRPRPYNQPRP | -0.0858 |
| RRIRVRPPRLPRPRPRPSMAPRP | -0.0698 |
| RRIRIRPPRLPRPRPRPKYLPRP | -0.437 |
| RRIRRRPPRLPRPRPRPEFHPRP | 0.0566 |
| RRIRRRPPRLPRPRPRPLFDPRP | 0.136 |
| RRIRRRPPRLPRPRPRPRVNPRP | 0.398 |
| RRIRHRPPRLPRPRPRPHSVPRP | -0.0237 |
| RRIRWRPPRLPRPRPRPKVAPRP | 1.16 |
| RRIRDRPPRLPRPRPRPDGKPRP | 0.00996 |
| RRIRNRPPRLPRPRPRPPYHPRP | -0.362 |
| RRIRERPPRLPRPRPRPPHYPRP | -0.159 |
| RRIRGRPPRLPRPRPRPYNVPRP | -0.126 |
| RRIRARPPRLPRPRPRPQTSPRP | 0.00801 |
| RRIRTRPPRLPRPRPRPWFHPRP | -0.362 |

| Sequence | shrunken log2 fold change |
| --- | --- |
| RRIRPRPPRLPRPRPRPNLWPRP | -0.0151 |
| RRIRVRPPRLPRPRPRPFVIPRP | -0.477 |
| RRIRLRPPRLPRPRPRPICYPRP | -0.284 |
| RRIRCRPPRLPRPRPRPFWYPRP | -0.353 |
| RRIRMRPPRLPRPRPRPPNRPRP | 1.08 |
| RRIRSRPPRLPRPRPRPIIHPRP | -0.526 |
| RRIRERPPRLPRPRPRPHEIPRP | -0.0168 |
| RRIRSRPPRLPRPRPRPIMLPRP | -0.156 |
| RRIRERPPRLPRPRPRPIDNPRP | -0.108 |
| RRIRERPPRLPRPRPRPWWFPRP | 0.137 |
| RRIRIRPPRLPRPRPRPCNIPRP | -0.106 |
| RRIRHRPPRLPRPRPRPRFVPRP | -0.0283 |
| RRIRQRPPRLPRPRPRPKTWPRP | 1.14 |
| RRIRSRPPRLPRPRPRPVTPPRP | 0.0877 |
| RRIRIRPPRLPRPRPRPAWEPRP | -0.143 |
| RRIRTRPPRLPRPRPRPYKPPRP | -0.551 |
| RRIRNRPPRLPRPRPRPFGWPRP | 0.0221 |
| RRIRARPPRLPRPRPRPPKWPRP | 0.732 |
| RRIRSRPPRLPRPRPRPDHEPRP | -0.0462 |
| RRIRDRPPRLPRPRPRPLKLPRP | 0.0229 |
| RRIRKRPPRLPRPRPRPNNEPRP | 0.0823 |
| RRIRQRPPRLPRPRPRPLESPRP | -0.0344 |
| RRIRWRPPRLPRPRPRPQVDPRP | 1.5 |
| RRIRMRPPRLPRPRPRPYQPPRP | 0.0396 |
| RRIRIRPPRLPRPRPRPIVEPRP | 0.0786 |
